Source: a protein production outcome set (Wang et al. 2014)

Assay: label from the status in PepcDB records

For “MDLFNAPIAPLQVLHDQQGGVRYWPHLLPPALAQEAFDALRDDADWRSQRREMYDRVVDVPRLLASYRLDDALPAGLPLQRLLDAVQAVLPAPYNAVGLNLYRDGRDSVAMHHDALHTLVAPHPIALLSLGTPRRMQLRAKDGSTRAVALELAPGSLLAMSHASQHTHVHGIAKSTRAVGERISVVFRVRPAQRMAAGQHGPHWEPVQS”, the protein production was “failed”.
With “MPFTPVDWAILGIVAISALISLKRGFVKEALSLTTWIIAGVVAWMFGAGLSQYLVNYIETPSARVIASCTILFVATLLVGAMVNFLIGELIRVTGLSGTDRFLGMVFGAARGGLLVVVAVGLLSLGPVQQDQWWQQSRLVPQFLIVADWSKNLILGMSSKWLASGISVPADLPFKEQILPPTLPQDVLGKSSSTK” the protein production was “failed”.
For “MDSEAQQISLLIGKEDRYGRVEVNLMEVEPMNAEDFNAKLDVSFKAWKDQGKKGIWIKLPCELSSLVDIAMKKGFTYHHAENEYAVLSSWISDLPNTIPANASHRIGIGALVLNKNREVLAVQEIDGVFKDTGLWKLPTGVIQENRENFRYMANICLKRSQEKEYLGFSNVLTKNSTGKESYLYCSTDHAYFLKGKPDHSSTSLFTTLLRKCFSI”, the protein production was “failed”.
In the case of “MSSILSDTAPRFLADYRPADFTINTVNLTIHLDDTCSQVVSELTIERKGDVQQALQLNGEHLTLVSLVLDNQALSKDQYQINETLLIIPASSLPDRSHFTLIITTEINPQENTALEGLFKSGDAFCTQCEAEGFRRISYYLDRPDVMATFTTKVIADKNLYPYLLSNGNKVASGELSDNKHFVTWHDPFPKPCYLFALVAGNFDLLEDNFTTASGREVALEIFVDEGNLAKAEHAMTSLQKSMAWDEETFGLEYDLDIYMIVAVDFFNMGAMENKGLNVFNSKYVLADSHCATDSDYFNIEAVIAHEYFHNWTGNRVTCRDWFQLSLKEGLTVFRDQQFSAQMHSSAVTRIQNVRVLRSQQFAEDAGPMAHPIRPEKVLEMNNFYTLTVYEKGSEVIRMLHTLIGVDKFRQGMDLYFSRFDGMAVTCDDFINAMSDASGKDLAQFKLWYSQSGTPVIKAQEMFDSQTNIYTLTLLQQSPITKNQQNPQALHIPIKVELISDNNNEASQSELLELTQTEQSWQFSGFTSKPTLAMLADFSAPVKLIFDQNNTSLLTIMQQADNSFCRWDAGQKLLMSYLHQLTFDIDYTIPNELINAINDMLNSGGDRAFIAEQLSLPSFDEAASLMVDIDPIALTNAITTLATFIARGTQQQLLVSYKACQHEDLKDNAVANRALKNVCLSYLSLLPEYQYLVTQQYQQATNNDDILKENMTDSLAALTCSSKNNLDDLNEQLEHFENKWQQTTLVMDKWFALNASVVSEDVFTQLANLLEHPQFSLKNPNRARSLIGAFAMNNPKYFHCPTGRGYQFLADQIAKLNEINPQVASRLITPLIQFKSFAPAHQKLMKAELVKLQALTNLSNDLKEKLDAALND”, the protein production is reported as “failed”.
With “AIARGHGTYMDEDRLTASVAGQVERVNKLICVKPLKTRYNGEVGDVVVGRITEVQQKRWKVETNSRLDSVLLLSAVNLPGGELRRRSTQDELAMRDYLQEGDLISAEVQSIFSDGALSLHTRSLKYGKLGQGVLVYVSPSLVKRQKTHFHNLPCGASLILGNNGYVWLSPTPALQEEQAGGFYTSMEPVSLSDREVVSRLRNCLLALANQKVLLFDTSVLYCYEASLQHQIKDILKPEIMEEIVLETRQRLMEHEG” the protein production was “not failed”.
With “MKSSTMTSDYYKQTQIDQTLRLREVLKTLPPFAKDYFRAMEPKSSAKTRINYAYDIRVFFHFLLENNPIYKNYTMDQFRVQDLERIEPVDIEEYMEYLKVYKREDNEMITNGERGLKRKMSALRSFYSYYFKHQYIATNPTLLEHHHHHH” the protein production was “failed”.
With “MTSPSSAFPDGHGARLDAQSIRFERLLPGPIERVWAWLADADKRARWLAGGELPRQPGQTFELHFNHAALTAETAPARYAQYDRPIVARHTLLRCEPPRVLALTWGGGAGEAPSEVLFELSEAGEQVRLVLTHTRLADRAAMLDVAGGWHAHLAVLAGKLAGQAPPPFWTTLAQAEQDYEQRLLEHHHHHH” the protein production was “not failed”.
In the case of “MSQFDRIHLVVLDSVGIGAAPDANDFVNAGVPDGASDTLGHISKTVGLAVPNMAKIGLGNIPRPQALKTVPAEENPSGYATKLQEVSLGKDTMTGHWEIMGLNITEPFDTFWNGFPEDIITKIEDFSGRKVIREANKPYSGTAVIDDFGPRQMETGELIIYTSADPVLQIAAHEDIIPLEELYRICEYARSITMERPALLGRIIARPYVGEPGNFTRTANRHDYAVSPFEDTVLNKLDQAGIDTYAVGKINDIFNGSGINHDMGHNKSNSHGIDTLIKTMGLSEFEKGFSFTNLVDFDALYGHRRDPHGYRDCLHEFDERLPEIISAMRDKDLLLITADHGNDPTYAGTDHTREYIPLLAYSPSFTGNGLIPVGHFADISATVADNFGVDTAMIGESFLQDLV”, the protein production is reported as “failed”.
In the case of “NGNPIPMGYSQAVENNVQITNFALFSAAAIGVELCLFDEQNQETRLPMVRTENVWHLAVTGVKTGTEYAFRIHGEFANPQKLILDPYAKAVNGKPDLSSEESRSWFLLSDNRDNAHLAPRAVVIS”, the protein production is reported as “failed”.
With “MNIAPVVDSLSAPAMLEELKQSPPWLRLSLLFPLFFLNGWLIYKAMGFLQPLSSLLVAAALLAFLLDIPVRILVEKGLKRPWAVASVLLIALVVISLFLLIVIPLAIDQLGQLLDNLPGWFRSGNAQLLMLQAWVNEHYANLQVDLQPLISQAIEKLSRILNSFGNQLLGLVGVTISTSINGLILLVLTIFLVLGGEKIWDGIFSWFPHPWQRDLQNLIRDTFEGYFATQAILAGILSVAQMVVFTLLQAPYAILFAITIGLSTLIPFASALSIIVISLLLMLENFWLGVKILLAAVIVGQINDNVISPRLMGNRTGLNPAWIIVSLFVGSKLGGVLGLLVAVPLASVIKATSDRLRGLPKKSGEQPAEVSVVST” the protein production was “failed”.
With “MQTINTHPVQPLKLDSEVQRQMNFQFLTAMKAFFTLLTTEDNIDAVDELSSILIHSRAFELAAESMQTDPEVAHLIKERYYAPVHDVEQLLQYPADSLGYLYASTLKESGFERIDPEIIVNSDTAYIEHRWQQTHDIWHLVTGFSASGIDEIGLQAFYLAQFRLPLASMLIANALMSATLLAPEDLPQLLQTIERGWTMGLQAKPLFAQKWEEAWEKPLSQWRDELNIQAFS” the protein production was “failed”.
For “MPSSTTVPTRRGLVSGPSSSDAHGDMPAVSVIMNCLNCERDLAEAIGSVFAQTFDDWEIVFWDNGSTDRSAEIAQGFGERVRYFRATETVPLGAARNLAIAKARGEFIAFLDCDDVWLPEKLERQVALFRANPRVGLVCTDTVMFTGAKDLNRLFEHAHPARGHVFRELMTTQWISMSSAVIRRNALDGMDHWFDESLNVCEEADVFYRIAWDWELDHVDAPLTRWRVHGANTTFRKFGQFAEETLRILDKHRAMYPGYDERYADLVALLRRRAAFQRAVALWREGRGAEARATIAPFDASPKFRLFRLATYLPGALFDPLARLYFALPAFLRRLEHHHHHH”, the protein production was “failed”.
With “MNNENPLVSILIPVYNREKYIGEAIESAINQTYKNIEVIIVDNCSTDNTWKILQDYQCKDKRIHIFQNEKNLGPVYNWIECFKRAKGVYSKILWSDDWMSLDFVENALSAFNEDISFVISAQQIITNDKEILSNVAYLKDRYSQREYLENALLYNKYNFPLSPGCAIFRTKDVLNNFIVDIPNSDSLDSKKNGAGNDLYLFLKIALHYPYIGVVANSVSYFRAHKESFSVASDLNLYYEWAKVDFINSELRDSYFISAKKMLLFKFSVKNKHFRNICKSLSYNKYILQAVFRLLLIRILEHHHHHH” the protein production was “failed”.
For “ESKSPIIQNVLSYITEHFSEGMSLKTLGNDFHINAVYLGQLFQKEMGEHFTDYLNRYRVNYAKEELLQTKDNLTIIAGKSGYTDMAYFYRQFKKHTGETPNRYRKIHQ”, the protein production was “not failed”.
With “MSEQTSQYLSDSYVEETRFGFWFLRSHTWQHHVLRVAINDLRSLFDGELPRHPVLLDAGCGQGKSFQYLRQVFAPQRLIGLDADPHSLKLSAEEARRQQMQVELIGSDCATLELADASVDLLFCHQTFHHLVEQEKALAEFYRVLKPGGYLLFAESTEAYIDTWVIRWLFRHPMHVQKSAAQYLQMIRQQGFEFGPQNVSYPYLWWSRAKDFGLLERFGLRQPPPVGQREETLVNVVARKPLNPTVVEEGLPA” the protein production was “failed”.
In the case of “MSLGVLRYTLRARGHPNVTAGHRTTFEVTVDPEIGETADCIIGVSSSDSISTLPDEMKRAIARESSLVRVILRTENGYDEIRGYGHPELTLDHPTDIVCRKSDYICSRTLMIRADKAAFDLDENLVRDLRKGRELKVEIIVEYEGHHHHHH”, the protein production is reported as “not failed”.
In the case of “FFKGAASSVLELTEAELVTAEAVRSVWQRILPKVLEVEDSTDFFKSGAASVDVVRLVEEVKELCDGLELENEDVYMASTFGDFIQLLVRKLRGDDEE”, the protein production is reported as “not failed”.
